Results published in the RNAGym collection of RNA variant scans (doi:10.7554/elife.80360).

B1: HDV Ribozyme (parent)
chain: GGCCGGCAUGGUCCCAGCCUCCUCGCUGGCGCCGGCUGGGCAACAUUCCGAGGGGACCGUCCCCUCGGUAAUGGCGAAUGGGACCCA

Variants of: B1
Assay: self-cleavage, relative activity (ratio to wild type); higher = more cleavage; co-transcriptional

Variant | self-cleavage
GGCCGGCAUGGUCCCAGCCUCCUCGCUGGCGCCGGCUGGGCACCUUUCCGAGGGGACCGUCCCCUCGGUAAUGGCGAAUGGGACCCA [A43C A45U] | 0.554
GGCCGGCAUGGUCCCAGCCUCCUCGCUGGCGCCGGCUGGGCACCAUUCCGAGGGGACCGUCCACUCGGUAAUGGCGAAUGGGACCCA [A43C C63A] | 0.26
GGCCGGCAUGGUCCCAGCCUCCUCGCUGGCGCCGGCUGGGCACCAUUCCGAGGGGACCGUCCUCUCGGUAAUGGCGAAUGGGACCCA [A43C C63U] | 0.529
GGCCGGCAUGGUCCCAGCCUCCUCGCUGGCGCCGGCUGGGCUACAUUCCGAGGGGACCGUCCCCUCGGUAAUGGCGAAUGGGACCCC [A42U A87C] | 0.533
GGCCGGCAUGGUCCCAGCCUCCUCGCUGGCGCCGGCUGGGCACCAUUCCGAGGGGACCAUCCCCUCGGUAAUGGCGAAUGGGACCCA [A43C G59A] | 0.441
GGCCGGCAUGGUCCCAGCCUCCUCGCUGGCGCCGGCUGGGCACCAUUCCGAGGGGACCGUCCCCUCUGUAAUGGCGAAUGGGACCCA [A43C G67U] | 0.299
GGCCGGCAUGGUCCCAGCCUCCUCGCUGGCGCCGGCUGGGCUACAUCCCGAGGGGACCGUCCCCUCGGUAAUGGCGAAUGGGACCCA [A42U U47C] | 0.394
GGCCGGCAUGGUCCCAGCCUCCUCGCUGGCGCCGGCUGGGCUACAUACCGAGGGGACCGUCCCCUCGGUAAUGGCGAAUGGGACCCA [A42U U47A] | 0.302
GGCCGGCAUGGUCCCAGCCUCCUCGCUGGCGCCGGCUGGGCUACAUUCCGAGGGGACCGUCCCCUCCGUAAUGGCGAAUGGGACCCA [A42U G67C] | 0.415
GGCCGGCAUGGUCCCAGCCUCCUCGCUGGCGCCGGCUGGGCUACAUUCCGAGGGGACCGUCCCCUCUGUAAUGGCGAAUGGGACCCA [A42U G67U] | 0.346
GGCCGGCAUGGUCCCAGCCUCCUCGCUGGCGCCGGCUGGGCUACAUUCCGAGGGGACCGUCCCCUCAGUAAUGGCGAAUGGGACCCA [A42U G67A] | 0.47
GGCCGGCAUGGUCCCAGCCUCCUCGCUGGCGCCGGCUGGGCUACAUUCCGAGGGGUCCGUCCCCUCGGUAAUGGCGAAUGGGACCCA [A42U A56U] | 0.577
GGCCGGCAUGGUCCCAGCCUCCUCGCUGGCGCCGGCUGGGCUACAUUCCGAGGGGCCCGUCCCCUCGGUAAUGGCGAAUGGGACCCA [A42U A56C] | 0.629
GGCCGGCAUGGUCCCAGCCUCCUCGCUGGCGCCGGCUGGGCACCAUUCCGAGGGGACCGUCCCCUCGGUUAUGGCGAAUGGGACCCA [A43C A70U] | 0.322
GGCCGGCAUGGUCCCAGCCUCCUCGCUGGCGCCGGCUGGGCACCAUUCCGAGGGGACCGUCCCCUCGGUAAUGGCGAAUGAGACCCA [A43C G81A] | 0.248
GGCCGGCAUGGUCCCAGCCUCCUCGCUGGCGCCGGCUGGGCUACAUUCCGAGGGGACCGUCCCCUCGGUAAUGGCGAAUGUGACCCA [A42U G81U] | 0.145

Variant | self-cleavage
GGCCGGCAUGGUCCCAGCCUCCUCGCUGGCGCCGGCUGGGCACCAUUCCGAGGGGACCGUCCCCACGGUAAUGGCGAAUGGGACCCA [A43C U65A] | 0.623
GGCCGGCAUGGUCCCAGCCUCCUCGCUGGCGCCGGCUGGGCACCAUUCCGAGGGGACCGUCCCCGCGGUAAUGGCGAAUGGGACCCA [A43C U65G] | 0.453
GGCCGGCAUGGUCCCAGCCUCCUCGCUGGCGCCGGCUGGGCACCAUUCCGAGGGGACCGUCCCCCCGGUAAUGGCGAAUGGGACCCA [A43C U65C] | 0.482
GGCCGGCAUGGUCCCAGCCUCCUCGCUGGCGCCGGCUGGGCACCAUUACGAGGGGACCGUCCCCUCGGUAAUGGCGAAUGGGACCCA [A43C C48A] | 0.386
GGCCGGCAUGGUCCCAGCCUCCUCGCUGGCGCCGGCUGGGCUACAUUCCGAGGGGACCGUCCCCUCGGUAAUGGCGAAUGGGACGCA [A42U C85G] | 0.332
GGCCGGCAUGGUCCCAGCCUCCUCGCUGGCGCCGGCUGGGCACCAUUCCGAGGGGACCGUCCCCUCGGUAUUGGCGAAUGGGACCCA [A43C A71U] | 0.322
GGCCGGCAUGGUCCCAGCCUCCUCGCUGGCGCCGGCUGGGCACCAUUCCGAGGGGACCGUCCCCUCGGUACUGGCGAAUGGGACCCA [A43C A71C] | 0.534
GGCCGGCAUGGUCCCAGCCUCCUCGCUGGCGCCGGCUGGGCUACAUUCCGAGGGGAACGUCCCCUCGGUAAUGGCGAAUGGGACCCA [A42U C57A] | 0.575
GGCCGGCAUGGUCCCAGCCUCCUCGCUGGCGCCGGCUGGGCUACAUUCCGAGGGGACCGUCCCGUCGGUAAUGGCGAAUGGGACCCA [A42U C64G] | 0.574
GGCCGGCAUGGUCCCAGCCUCCUCGCUGGCGCCGGCUGGGCACCAUUCCGAGGGGACCGGCCCCUCGGUAAUGGCGAAUGGGACCCA [A43C U60G] | 0.68
GGCCGGCAUGGUCCCAGCCUCCUCGCUGGCGCCGGCUGGGCACCAUUCCGAGGGGACCGACCCCUCGGUAAUGGCGAAUGGGACCCA [A43C U60A] | 0.249
GGCCGGCAUGGUCCCAGCCUCCUCGCUGGCGCCGGCUGGGCACCAUUCCGAGGUGACCGUCCCCUCGGUAAUGGCGAAUGGGACCCA [A43C G54U] | 0.374
GGCCGGCAUGGUCCCAGCCUCCUCGCUGGCGCCGGCUGGGCACCAUUCCGAGGGGACCGUCCCCUCGGCAAUGGCGAAUGGGACCCA [A43C U69C] | 0.582
GGCCGGCAUGGUCCCAGCCUCCUCGCUGGCGCCGGCUGGGCACCAAUCCGAGGGGACCGUCCCCUCGGUAAUGGCGAAUGGGACCCA [A43C U46A] | 0.877
GGCCGGCAUGGUCCCAGCCUCCUCGCUGGCGCCGGCUGGGCACCACUCCGAGGGGACCGUCCCCUCGGUAAUGGCGAAUGGGACCCA [A43C U46C] | 0.435
GGCCGGCAUGGUCCCAGCCUCCUCGCUGGCGCCGGCUGGGCACCAUUCCGAGGGGACCGUCCCCUCGGUAAUGGCGAAUGGCACCCA [A43C G82C] | 0
